Test results from the supplement of paper PMC12042874.
± gives the uncertainty stated by the source.

assay: amyloid nucleation score (Sup35N fusion, yeast selection) (log enrichment); library NNK3; higher = more nucleation; inactive = no reads after selection
In short: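 After 24 hours of induction with 100 μM copper sulfate, psi-negative yeast expressing peptides of 20 random codons fused to Sup35N were grown for 7 days at 30°C on medium lacking adenine and uracil. Input and output plasmid inserts were sequenced with Illumina, and sequences with under 100 input reads were discarded. Scores for nucleation are the DiMSum log enrichment of output over input reads, centred on the mode score of non-aggregating sequences.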

Substance	amyloid nucleation score
VRSTFNCITLRTLAIRSFYH	inactive
VRTVFCNIFFEFRGGSRNWA	1.79 ± 0.11
VRVILNAGLKNGRKVLNLGR	inactive
VRVLDWNLMHFFFSYKRFLQ	-0.094 ± 0.25
VRVLMSL	-0.087 ± 0.45
VRWWWLNF	inactive
VRYFSKSGGRNPNVGRVVPV	inactive
VRYSPDRKFGETCIKQAVMT	inactive
VSAAYLRTVRQ	inactive
VSEFFFP	inactive
VSEMCIMSCTHIVGDCSWIR	inactive
VSFEYTGEYLCSNVRATDLL	0.366 ± 0.69
VSGQKVSCMDE	inactive
VSIKSRLRCLSVVQDNSRCV	inactive
VSLGVNRGG	inactive
VSLVWDMHWHSYRVSSELCR	inactive
VSNHSIDIGRLRLGFTC	inactive
VSNLLIKVTRHASYDQSS	inactive
VSRPS	inactive
VSRVTRLNKFISVVHDSCEV	inactive
VSSRECMLRPLPDTKTRLAA	inactive
VSSSSEVHCYSSFMYISKSP	0.824 ± 0.16
VSTWVQTPGTHMLGVIVYFE	inactive

Substance	amyloid nucleation score
VSYCAWSFEG	inactive
VTAFATNKVC	inactive
VTAFCWGLQRIVGIECSMLE	inactive
VTFIRQGLEIVSVVLSICKE	inactive
VTFMIDFRASWALFHDRWWC	inactive
VTFSCLYVFFYRQVIRCFGM	0.059 ± 0.26
VTGIIRRIYLLF	inactive
VTHLPTDIGMC	0.894 ± 0.12
VTLRCNGDMVYHYLPCGVLR	inactive
VTMFLGQWCSHSIVAMCIEG	inactive
VTMVSYYTCGEHNKVNILMQ	1.42 ± 0.097
VTSESSSMGLTLSF	inactive
VTSPFTPSI	-0.336 ± 0.63
VTVEALILNN	inactive
VTVLQM	inactive
VTVSYIVNGMTSLFQVDVAS	inactive
VTYNTSSGRVYGTGHNWFQG	inactive
VVATTLEFMWRHMGTYFWGI	inactive
VVCLYILHIPCSVRRHTLAD	inactive
VVDGSRCPPLSLSSDMWAR	inactive
VVEGSILACVNRGGKKYYDC	inactive
VVFYTSGARDRICHMDVHRP	0.113 ± 0.69
VVGNVTGY	inactive

Substance	amyloid nucleation score
VVGSSIK	inactive
VVICILQLHQYFFNYVH	2.11 ± 0.05
VVITYSFRVQHV	inactive
VVKFFVWLDVFYVWGLAGII	inactive
VVLIFWWKSQGMSMIVFVIY	inactive
VVMMFVVIYIYALRRPY	0.143 ± 0.25
VVQRMG	-0.048 ± 1.1
VVRCLLFVQLGCSKNLVAFQ	1.12 ± 0.12
VVRVHIRCTAFYKAPSYWGS	0.987 ± 0.11
VVSIYVGSYMSIICKS	1.95 ± 0.059
VVVSERVREMRDYNVLLRCT	inactive
VVYDVTVKKSLDIRFPLRIP	inactive
VVYTGTNGRLQDRA	inactive
VWCLFTSLSS	inactive
VWFGESAFRLVSELCIIKDV	inactive
VWLHNFLVMKLSMRNFGWVR	inactive
VWLSRRIVCFRLLVQLNSA	inactive
VYCLSHNCMITSDNVRSIIF	inactive
VYDWRGRVGD	inactive
VYFDDRTYRYRVAHIKFSFR	2.94 ± 0.076
VYGVTSHCTVRRELWAGSIM	inactive
VYIFLNEEPRVN	inactive
VYMVTDRGR	inactive

Substance	amyloid nucleation score
VYNGSFWRVNLVNF	1.09 ± 0.095
VYQGMYNKSAYC	inactive
VYQTFYAIV	inactive
VYRCVFWDVCAWCFKFR	0.778 ± 0.14
VYSLFKVELISILGRMKITK	inactive
WADIIKMGDVHVVDYYRKER	inactive
WAGLHRVRFES	-0.26 ± 0.42
WASYDGPEKRRNHTRYYISM	inactive
WAYMVNFFRTNLICEGWFDG	-0.841 ± 2.5
WCDDFWLYVVLGYGLCFVLC	inactive
WCFCFMCSFMTKFFHYLGS	inactive
WCSPQFRLSFYLGISNDHWC	0.966 ± 0.09
WDFDVSVIGLMYKFRSVELG	inactive
WDFFIGLLLYSIL	inactive
WDLGASYLTGMFWVRIVGLE	inactive
WDLRSCCDNVSTFEL	inactive
WDYKAGISSSLSAIGCLYGD	inactive
WEFLCFFAT	inactive
WFERCLCLLTTRIKYLFSAD	inactive
WFVRLLGSAFN	inactive
WFYGRLLPVPVLWIIRLKKG	0.01 ± 0.59
WGCALCSYDACRLES	2.52 ± 0.068
WGFVWRVFLLKMC	inactive

Substance	amyloid nucleation score
WGMTNSETGLVGWSLSKLLG	inactive
WGWGCLCMWYICYSCVYRDR	0.708 ± 0.28
WHDYTQRGVWAHGTALVWG	inactive
WHSWAFGTGCGSRTFEG	0.526 ± 0.17
WIFMSYWCVDLMPQLLHECW	inactive
WILSNRWKFHLVGLVIAFV	inactive
WIPTPVLCGRPNFYFY	inactive
WIRIIQLNVSERGNRVGSYC	0.37 ± 0.5
WISNTRCVLFVGN	inactive
WIVFMGDASCLSLLTWELFC	1.25 ± 0.095
WKALFSSTSCYTGVG	inactive
WKGMITFGI	inactive
WKNNRLNIIYQPLLGTQICK	inactive
WLFLLRPRAGSTHPSTHLDF	0.823 ± 0.1
WLGRTATQFNIC	inactive
WLHKH	inactive
WLKWFLRTCNMVKIFASPFF	inactive
WLLDSRDGMRRKRAPRRVFA	inactive
WLQGCRSRWAVVL	inactive
WLSLFVIMPCLWGFCSMDSN	1.47 ± 0.11
WLVAEFQTYPMTQHLYVSMR	inactive
WMHRAYWLSGVCRVLQVTNL	inactive
WNEAWWNNRLGLARMVVLLG	inactive

Substance	amyloid nucleation score
WNFIVFGFYLDGRILFISYL	-0.755 ± 0.7
WNLYRFLNW	inactive
WNPFGRGWLTLPNMFHKTVI	inactive
WPDLQLLSSALPTPLQFSWL	inactive
WPLRGRSMLQWLSCHIQWAG	inactive
WRFFVVRKNSTSA	inactive
WRNENLPQSGRSMLVIFLLV	inactive
WRNMTI	inactive
WRRLEGSHA	inactive
WRRWQSRCGSLLRYSKETLN	inactive
WRSTRIRTSWHTDTDFLSNG	inactive
WRVAYET	inactive
WRVSFTLS	inactive
WRYVFLVC	inactive
WSETNTFS	inactive
WSFMYVYVC	1.71 ± 0.06
WSFRVKTNRDDTEMLLSRSE	inactive
WSMLPLKNTIAKQ	inactive
WSNSCYEC	inactive
WSPGESNTLVGVCIEDALRS	inactive
WSRSACMGEGNLDVFSVWLL	inactive
WSTPDFRGLHYSTVFITIFA	0.194 ± 0.51
WSVQMNRITDSSLDCMMMH	inactive

Substance	amyloid nucleation score
WTDNSVFLTVVINDIRTSTS	2.56 ± 0.062
WTKKFRVMTACLLEWYVDEK	inactive
WTMSLLQFDLDTSTSTLTMV	inactive
WTRVFLRTKGRSEFLLRWPL	inactive
WTSHALKISPLNICNQLEHV	-0.09 ± 0.77
WTSHPYWSL	inactive
WTWTSLSSLMWSV	inactive
WTYTKVWIWS	inactive
WVDYLYNSLESIRMCWANVY	inactive
WVFNGARKGM	inactive
WVFRFRNQ	inactive
WVPLDHVGGA	inactive
WVSFCVCWNFNLY	3.18 ± 0.064
WVSFKDLSELCLGCFRMPRF	inactive
WVSRNTVRGKVMSRCWVVQY	inactive
WVWSKL	inactive
WWPLSLGNNVGPLHCRSRWE	inactive
WYDGQRFCRELYNCPSAPGL	inactive
WYERGG	inactive
WYGVSACYGWHNVAHSSRTR	inactive
WYRFPCFFLYCDAWMILNFA	inactive
WYRMLFIRSKDSMDKMPIFL	inactive
WYSCAKMANIHIVSVVTTST	inactive
